Assay results reported in PMC10968091, “Crystallization of Ethylene Plant Hormone Receptor—Screening for Structure” (Biomolecules, 2024).

B1: ETR2^1-186 mT2 (domain or fragment, Arabidopsis thaliana, UniProt Q0WPQ2 1-186, looked up)
chain: MVKEIASWLLILSMVVFVSPVLAINGGGYPRCNCEDEGNSFWSTENILETQRVSDFLIAVAYFSIPIELLYFVSCSNVPFKWVLFEFIAFIVLCGMTHLLHGWTYSAHPFRLMMAFTVFKMLTALVSCATAITLITLIPLLLKVKVREFMLKKKAHELGREVGLILIKKETGFHVRMLTQEIRKSL
notes: Ethylene response 2 (ETR2), Arabidopsis thaliana, residues 1-186 (aa 187-773 removed); transmembrane domain; From pGEX4T-1; The plasmid name and the methods put mT2 next to the C-terminal 10x His-tag; also called ETR2 (aa 1-186); ETR2^1-186 mT2 10x His; source: E. coli C41(DE3)∆(ompF-acrAB), purified (IMAC); not shown: His10, C-terminal, kept
B2: ETR1^1-157 mT2 (domain or fragment, Arabidopsis thaliana, UniProt P49333 1-157, looked up)
chain: MEVCNCIEPQWPADELLMKYQYISDFFIAIAYFSIPLELIYFVKKSAVFPYRWVLVQFGAFIVLCGATHLINLWTFTTHSRTVALVMTTAKVLTAVVSCATALMLVHIIPDLLSVKTRELFLKNKAAELDREMGLIRTQEETGRHVRMLTHEIRSTL
notes: Ethylene response 1 (ETR1), Arabidopsis thaliana, residues 1-157 (aa 158-738 removed); transmembrane domain; From pGEX4T-1; also called ETR1^1-157 mT2 10x His; source: E. coli C41(DE3)∆(ompF-acrAB), purified (IMAC); not shown: His10, C-terminal, kept
B3: ETR1^1-407 (domain or fragment, Arabidopsis thaliana, UniProt P49333 1-407, looked up)
chain: MEVCNCIEPQWPADELLMKYQYISDFFIAIAYFSIPLELIYFVKKSAVFPYRWVLVQFGAFIVLCGATHLINLWTFTTHSRTVALVMTTAKVLTAVVSCATALMLVHIIPDLLSVKTRELFLKNKAAELDREMGLIRTQEETGRHVRMLTHEIRSTLDRHTILKTTLVELGRTLALEECALWMPTRTGLELQLSYTLRHQHPVEYTVPIQLPVINQVFGTSRAVKISPNSPVARLRPVSGKYMLGEVVAVRVPLLHLSNFQINDWPELSTKRYALMVLMLPSDSARQWHVHELELVEVVADQVAVALSHAAILEESMRARDLLMEQNVALDLARREAETAIRARNDFLAVMNHEMRTPMHAIIALSSLLQETELTPEQRLMVETILKSSNLLATLMNDVLDLSRLED
notes: Ethylene response 1 (ETR1), Arabidopsis thaliana, residues 1-407; From pETEV16b; also called AtETR1^1-407; source: E. coli C41(DE3)∆(ompF-acrAB), purified (IMAC); not shown: His10, N-terminal, kept
B4: ETR1^1-316 (domain or fragment, Arabidopsis thaliana, UniProt P49333 1-316, looked up)
chain: MEVCNCIEPQWPADELLMKYQYISDFFIAIAYFSIPLELIYFVKKSAVFPYRWVLVQFGAFIVLCGATHLINLWTFTTHSRTVALVMTTAKVLTAVVSCATALMLVHIIPDLLSVKTRELFLKNKAAELDREMGLIRTQEETGRHVRMLTHEIRSTLDRHTILKTTLVELGRTLALEECALWMPTRTGLELQLSYTLRHQHPVEYTVPIQLPVINQVFGTSRAVKISPNSPVARLRPVSGKYMLGEVVAVRVPLLHLSNFQINDWPELSTKRYALMVLMLPSDSARQWHVHELELVEVVADQVAVALSHAAILEES
notes: From pETEV16b; also called AtETR1^1-316; ETR1 (aa 1-316); source: E. coli C41(DE3)∆(ompF-acrAB), purified (IMAC); not shown: His10, N-terminal, kept

Target: the molecule itself
Test: SDS-PAGE and Western blot; IMAC-purified receptor constructs on SDS-PAGE (colloidal Coomassie) and Western blot (anti-GFP-HRP for ETR2^1-186 mT2, anti-His-HRP for the others); SDS-stable dimers seen beside monomers
B1: binds.
B2: binds.
B3: binds.
B4: binds.
